Results taken from patent US20230192819A1 (TWIST BIOSCIENCE, published 2023).
Where “and” joins values, the source holds several entries; their conditions need not be identical. Equal entries are not always repeated. Where two headings read alike, the source gives them in different places.

Key:
[1] = molecular target: T1, S1 variant B.1.1.7: UK (Acro) spike protein (SARS-CoV-2, UniProt P0DTC2 16-1213)
[2] = molecular target: T2, C52Hk S. African variant (Acro) spike protein (SARS-CoV-2, UniProt P0DTC2 16-1213)
[3] = molecular target: T3, Acro S1 spike protein (SARS-CoV-2) (SARS-CoV-2, UniProt P0DTC2 16-685); experiment: SPR (Carterra LSA); […]; 1:1 model; […]
[4] = molecular target: T3, Acro S1 spike protein (SARS-CoV-2)
[5] = molecular target: California Variant W152C_L452R_D614G
[6] = molecular target: T4, C52Hg Brazilian variant (Acro) spike protein (SARS-CoV-2, UniProt P0DTC2 16-1213); experiment: SPR (Carterra LSA); […]; 1:1 model; […]
[7] = molecular target: T1, S1 variant B.1.1.7: UK (Acro) spike …; experiment: SPR (Carterra LSA); […]; 1:1 model; […]
[8] = molecular target: T4, C52Hg Brazilian variant (Acro) spike …
[9] = molecular target: T2, C52Hk S. African variant (Acro) spike …; experiment: SPR (Carterra LSA); antibody on chip, spike protein as analyte; summary table
[10] = molecular target: T1, S1 variant B.1.1.7: UK (Acro) spike …; experiment: as above
[11] = molecular target: T3, Acro S1 spike protein (SARS-CoV-2); experiment: as above
[12] = molecular target: T4, C52Hg Brazilian variant (Acro) spike …; experiment: as above
[13] = molecular target: Delta variant (Acro) spike protein (SARS-CoV-2, UniProt P0DTC2 16-1213)
[14] = molecular target: T2, C52Hk S. African variant (Acro) spike …; experiment: SPR (Carterra LSA); […]; 1:1 model; […]

Binder	Kd [2]	koff [2]	kon [2]	Kd [3] [nM]	koff [3] [s⁻¹]	kon [3] [M⁻¹ s⁻¹]	kon [4]	IC50 [5] [nM]	Kd [6] [nM]	koff [6] [s⁻¹]	kon [6] [M⁻¹ s⁻¹]	Kd [7] [nM]	koff [7] [s⁻¹]	kon [7] [M⁻¹ s⁻¹]	Kd [8]	koff [8]	kon [8]	Kd [9] [nM]	Kd [10] [nM]	Kd [11] [nM]	also measured
Antibody 1-1 (Fc fusion) EVQLVESGGGLVQPGGSLRLSCAASGSIGSINAMGWFRQAPGKEREWVAGISNGGTTNYADSVKGRFTISADNSKNTAYLQMNSLKPEDTAVYYCAADGVPEYSDYASGPVWGQGTLVTVSS	6.2 nM	0.000806 s⁻¹	130000 M⁻¹ s⁻¹	0.677	0.00042	620000	135000 M⁻¹ s⁻¹ and 112000 M⁻¹ s⁻¹	4.4	0.691	0.00038	550000	0.867	0.00052	600000	5.57 nM and 9.51 nM	0.000724 s⁻¹ and 0.000956 s⁻¹	130000 M⁻¹ s⁻¹ and 100000 M⁻¹ s⁻¹	1.07	0.867	0.677	Kd [1]: 0.82 nM and 2.06 nM; koff [1]: 0.00024 s⁻¹ and 0.000189 s⁻¹; Kd [4]: 2.8 nM and 4 nM; koff [4]: 0.000378 s⁻¹ and 0.000446 s⁻¹; Kd [12]: 0.691 nM; Kd [13]: 2.31 nM and 2.22 nM; koff [13]: 0.000433 s⁻¹ and 0.000358 s⁻¹; kon [13]: 188000 M⁻¹ s⁻¹ and 161000 M⁻¹ s⁻¹; Kd [14]: 1.07 nM; koff [14]: 0.00058 s⁻¹; kon [14]: 540000 M⁻¹ s⁻¹
Antibody 1-7 (Fc fusion) EVQLVESGGGLVQPGGSLRLSCAASGGTFSSIGMGWFRQAPGKEREFVAAISWDGGATAYADSVKGRFTISADNSKNTVYLQMNSLKPEDTAVYYCAKEDVGKPFDWGQGTLVTVSS	8.2 nM and 7.9 nM	0.000459 s⁻¹ and 0.000521 s⁻¹	56000 M⁻¹ s⁻¹ and 66000 M⁻¹ s⁻¹	1.31	0.00047	360000	130000 M⁻¹ s⁻¹ and 161000 M⁻¹ s⁻¹	0.111	0.962	0.00025	260000	1.11	0.0004	360000	8.53 nM and 12.5 nM	0.00081 s⁻¹ and 0.00121 s⁻¹	95000 M⁻¹ s⁻¹ and 96200 M⁻¹ s⁻¹	1.36	1.11	1.31	kon [1]: 144000 M⁻¹ s⁻¹ and 188000 M⁻¹ s⁻¹; Kd [12]: 0.962 nM; Kd [13]: 0.114 nM and 0.0579 nM; koff [13]: 1.87e-05 s⁻¹ and 1e-05 s⁻¹; kon [13]: 164000 M⁻¹ s⁻¹ and 173000 M⁻¹ s⁻¹; Kd [14]: 1.36 nM; koff [14]: 0.00049 s⁻¹; kon [14]: 360000 M⁻¹ s⁻¹
